Reference: patent publication US20110212091A1
pIC50: −log10 of the molar value.

Tests used:
[1] = target: Recombinant human FGFR4-Fc (R&D Systems Cat # 685-FR) (human) (UniProt P22455); experiment: competition ELISA: FGFR4-Fc preincubated with soluble FGF1, binding to immobilized FGF2-heparin
[2] = target: Recombinant human FGFR4-Fc (R&D Systems Cat # 685-FR) (human) (UniProt P22455); experiment: competition ELISA: FGFR4-Fc preincubated with soluble FGF2, binding to immobilized FGF2-heparin

| Substance | pIC50 [1] | pIC50 [2] |
| --- | --- | --- |
| FGF1 (soluble) (from UniProt P05230 16-155) (ligand) | 9.13 | – |
| recombinant human FGF2 (R&D Systems, Cat# 233-FB) (from UniProt P09038 143-288) (ligand) | – | 9.16 |
